What was measured:
Assay in all cases: BLI; biotinylated recombinant human FcγR loaded on SAX (streptavidin) biosensors, antibody in serial dilutions in solution; kinetic buffer 1% casein, 0.2% Tween20, 1x PBS pH 7.4; 30°C; Octet HTX; global fit, 1:1 Langmuir model
[1] = biological target: human FcγRIIIa V158 (CD16 V158), biotinylated recombinant protein (human)
[2] = biological target: human FcγRIIa R131 (CD32a R131), biotinylated recombinant protein (human)
[3] = biological target: human FcγRIIb (CD32b), biotinylated recombinant protein (human) (UniProt P31994)
[4] = biological target: human FcγRIIa H131 (CD32a H131), biotinylated recombinant protein (human) (UniProt P12318)
[5] = biological target: human FcγRI (CD64), biotinylated recombinant protein (human) (UniProt P12314)
[6] = biological target: human FcγRIIIa F158 (CD16 F158), biotinylated recombinant protein (human) (UniProt P08637)

Chain of nonfucosylated anti-TIGIT mAb, human IgG1 (SEA-TGT) (antibody; other documents disagree on this pair) (VH): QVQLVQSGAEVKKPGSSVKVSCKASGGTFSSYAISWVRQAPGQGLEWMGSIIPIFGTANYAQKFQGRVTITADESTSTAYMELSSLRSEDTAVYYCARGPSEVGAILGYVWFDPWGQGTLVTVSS
Chain of nonfucosylated anti-TIGIT mAb, human IgG1 (SEA-TGT) (antibody; other documents disagree on this pair) (VL): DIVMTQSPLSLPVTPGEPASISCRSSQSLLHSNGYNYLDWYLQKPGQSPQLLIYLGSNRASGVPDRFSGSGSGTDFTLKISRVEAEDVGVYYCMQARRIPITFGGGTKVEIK
Chain of nonfucosylated anti-TIGIT mAb, human IgG1 (SEA-TGT) (antibody) (VH): as the sequence (VH) above
Chain of nonfucosylated anti-TIGIT mAb, human IgG1 (SEA-TGT) (antibody) (VL): as the sequence (VL) above

Substance | Kd [1] [nM] | Kd [2] [nM] | Kd [3] [µM] | Kd [4] [nM] | Kd [5] [µM] | Kd [6] [nM]
anti-TIGIT mAb, human IgG1 S239D/A330L/I332E (DLE-TGT) (antibody) | 60 | 1560 |  |  |  | 
nonfucosylated anti-TIGIT mAb, human IgG1 (SEA-TGT) (antibody; other documents disagree on this pair) |  |  | 19.1 | 3220 | 0.0019 | 490
Fc-muted anti-TIGIT mAb, human IgG1 L234A/L235A/P329G (LALA-TGT) (antibody; other documents disagree on this pair) |  |  |  |  | 25.5 | 
nonfucosylated anti-TIGIT mAb, human IgG1 (SEA-TGT) (antibody) | 90 | 3640 |  |  |  | 
anti-TIGIT mAb, human IgG1 S239D/A330L/I332E (DLE-TGT) (antibody; other documents disagree on this pair) |  |  | 3.13 | 1620 |  | 
